Measured values reported in the supplement of paper PMC12636428.

What follows are sequences tested on Saccharomyces cerevisiae (assay: transcriptional activation domain activity (GFP:mCherry ratio, weighted mean of sorted bins, harmonized to initial dataset scale) (arbitrary fluorescence ratio units); higher = stronger transcriptional activation). Settings: beta-estradiol 1 µM; induction time 4 h.
In short: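 Each value is an activation activity: the read-weighted mean of bin median fluorescence, averaged across barcodes, then mapped linearly to the initial dataset scale. The tiles, fused to an estradiol-inducible synthetic transcription factor, sat at the yeast URA3 locus in GFP-reporter diploids. Cells spent 4 hours at 30 °C in SC with 1 uM beta-estradiol before sorting into 8 GFP:mCherry bins, and tiles below 50 reads were removed.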
In the case of “GDVAATDIGSKGGKKDGKRQKGSAAHVDGEDTSEDKKGAAKTGKRKKGGGAKE”, the “transcriptional activation domain activity” value is reported as 27200. In the case of “GEAGAEGEAAAAEGEGAAEEGASGEGAEGEEAAAEEGEGAEEEGGEDLQALAT”, the “transcriptional activation domain activity” value is reported as < 6570. “GEAGAEQGEHGARRARTRGAGCVRGRGREVGEGAGARRRVCGRRCEREARAHN” was tested, and the “transcriptional activation domain activity” value was 23400. For “GEAGEAGEAGAEGTATEEREEEEEQQQKKEERKRKRKRKQQQGSGKVTVAAAK”, the “transcriptional activation domain activity” value was 45000. “GEAQARANADAQADAGEVPEKGKKKRRHKEGGGDGEGKKKKRKEKQTEPEEGA” was tested, and the “transcriptional activation domain activity” value was 24700. “GEASAEKTKKRSRASKGGEDGKKKKSKEARVESNGANGHAGGDAAAAAAAEQQ” was tested, and the “transcriptional activation domain activity” value was 30400. “GEDEEEGEEEEEEDDDDEEEKDHDEDEGDQGDGASDDADAAAQERPGKPRPGR” was tested, and the “transcriptional activation domain activity” value was 8020. With “GEDSTRSAKKPTNKRKKASTAGDEGRETKARKTAKGRAGTRVRKGRGAKTSSS” the “transcriptional activation domain activity” value was 20500. With “GEDTAQEGGEEGATSADEEETASTTRSGRKPKKIKTAVPIKRKRRSGRGGIAA” the “transcriptional activation domain activity” value was 31200. “GEEARDRGHRSGSGRHRSRDRERRRRRDRDDDRHTSSRHSRRERSPEEDSSRR” was tested, and the “transcriptional activation domain activity” value was 36700. In the case of “GEEDAEEEAKPKKGGKRKAEPVKEEDDEPEEAPAKPKRGRKSAKEQVKEEIKE”, the “transcriptional activation domain activity” value is reported as 42700. With “GEEGDKPKRGRKRKEAPKDDGEDADDAEAPAAKKAKPASKPASKAAATKPASK” the “transcriptional activation domain activity” value was 34200. In the case of “GEEGEMSLTKDDLVELLEQDDNGWCRRSAPPARNRPVPAKPAATTNTVRASPV”, the “transcriptional activation domain activity” value is reported as < 6570. For “GEEGKAEEAAGEEGKAEAEAGAESEKSAEGEGEASAEEGASGEEAAGEKAAGE”, the “transcriptional activation domain activity” value was 26800. With “GEEKPKPVRRQRQPKDPNAPPPQRKKRKTAAEKAAEAAAAASTPTPAPAPAPA” the “transcriptional activation domain activity” value was 13600. “GEEVSAPLPKPKGKGGRPRKHPRPEPVASEYEVDGEPTPKRARRAIKSKRGRR” was tested, and the “transcriptional activation domain activity” value was 23500. With “GEGAGGRDSTKTGAKAAGTGSTASKQPSNSASGGGQGKKKQPSATSAAGRKIA” the “transcriptional activation domain activity” value was 59000. In the case of “GEGEAKTKKRNKRSKAPVEGEAAETPAAATTEGEEAAAPAAPKKEKKPRKPRA”, the “transcriptional activation domain activity” value is reported as 8960. In the case of “GEGEEDDVNGNKKRASDRSSSPKSKRSRKDEEEKEKEKKPTVKKPRQTKPKTT”, the “transcriptional activation domain activity” value is reported as 31300. For “GEGEGEVEAEVPTAAANEPVLEVQPKEPEPEAPAQPQQQPAAVKTTRPAPVSH”, the “transcriptional activation domain activity” value was 28800. “GEGERGSDGRQKEGARERGRRRETRKQNQKRGRGGRGGRGRGEGGAKSETQET” was tested, and the “transcriptional activation domain activity” value was 17200. In the case of “GEGESADERRRRRHKRKRDGSDEEDEEERGRKRSRRSKGSDDDRSGDDDEDDE”, the “transcriptional activation domain activity” value is reported as 25600. With “GEGKRGGVGKKGKGKTKGKEGSIGKSNAKKGASETPKKEKEKARGAEASDKGS” the “transcriptional activation domain activity” value was 45600. “GEGRAGGGRGGRKDSRDDRRGNRNSSNERDRSRNRRNSNGNNRSKKNDSDRGR” was tested, and the “transcriptional activation domain activity” value was 24400. “GEGSAEDGGGSSEPRRLRRSHEACSRCRGKKIKCDSKHPRCTACATANTQCTQ” was tested, and the “transcriptional activation domain activity” value was 25100. “GEIAQLWDFNVDQFNMTPSNSSGSATISAPNSFTSDIPQYNHGSLGNSVSKSS” was tested, and the “transcriptional activation domain activity” value was 48300. In the case of “GEIVQIDLPLYGKSGQNRGKAALEYSDSLSAQKAASHMTGGQIDGAVVKVELS”, the “transcriptional activation domain activity” value is reported as 66000. “GEKAEGANGEGSGAEGSRRRPSGRGRGRGRGRGGRGGRGGRATNEAGDEKKEG” was tested, and the “transcriptional activation domain activity” value was 22500. For “GEKATEAANGEGSGTEGSRRRASGRGRGRGRGRNGRGGARGGRAGDAEEKKEG”, the “transcriptional activation domain activity” value was 9280. “GEKEASGENTSNGTTATTVKPSSSSDEEKAAKKENKEAATTTNNGIKNSATAS” was tested, and the “transcriptional activation domain activity” value was 30300. In the case of “GEKGRKGGAEEGERRREEGGGRRRDEGERRGEGGAGSREGTGRAGEQGERGSR”, the “transcriptional activation domain activity” value is reported as 19200. In the case of “GEKRKRGGEGKGEDDDDDDDDDRGQEGDGKRGSEDTGGGSKKGRRRRKRGKGH”, the “transcriptional activation domain activity” value is reported as 22600. In the case of “GELLYIILSIVDVDLICRFTIIHPIPTFDNLTALNMVIDRMQEVGLYLVYDMR”, the “transcriptional activation domain activity” value is reported as 52300. With “GELQFCYITGMVLGNLACMEQWGNIVRVIFRAFRLALDSPVFFRKVIQAIHTQ” the “transcriptional activation domain activity” value was 80700. With “GELRLPELQAIGISGGMSLLQDAVFMDGRPEASPLFKIIHLLKRASHWKLGRS” the “transcriptional activation domain activity” value was 46300. With “GELYIYRLISSGLIFDTLWSLVTFGHPKGHPLPQYPCTVDMPDDFFRVRLVCV” the “transcriptional activation domain activity” value was 65900. With “GERDIDVSSIEDVVKRECKKRVENEKLAQVGYAYDLAHSKAAAHLEAVKKLRK” the “transcriptional activation domain activity” value was 32900. “GERGRGGEEERRGRGRGRGREEREREKERRERERRRRREEEEERGEEERRGRR” was tested, and the “transcriptional activation domain activity” value was 29400. In the case of “GESDDEGGGGRKRKKAKVEPAPKVKVERKPAAPVQEGEKKKRGRPRKVAPLPA”, the “transcriptional activation domain activity” value is reported as 24400. With “GESKEERRSKKDKKRKREAEGVPAEEEASEVQDKKKKKSKNASAMEVDSATPT” the “transcriptional activation domain activity” value was 30900. “GESNASLTKTLDSVLRNCFPQRSRMVLPVELPLDVFVCIVHFLLVRQFEYGQE” was tested, and the “transcriptional activation domain activity” value was 49700. “GESSSKPPKKRGRPRKNPLPPAEPSGADEGETSAPAAEPNPPKRKRGRPRKDS” was tested, and the “transcriptional activation domain activity” value was 34600. For “GETVFYKGQGKKRQEIRAPLRRGMALLHRHGHECLLHEGTQVLKGIKYVLRSD”, the “transcriptional activation domain activity” value was 54600. “GEVSEAEANGATTQAEDGATPAEGADKKKKKKKARKSKKAADAAAGGAEKPAE” was tested, and the “transcriptional activation domain activity” value was 17900. With “GEVTEAEANGEAPKPEGEAAAEASPKPRKKKSPRKKKAAAPAEGEAAATEATA” the “transcriptional activation domain activity” value was 19600. With “GEVTQKTRKGSTKHAQRATSGKASEKRRELSRKRKGRRKENARADDGTGEEEE” the “transcriptional activation domain activity” value was 17400. For “GFAKDTQDEEYVQHHDNVNPTIPPPDNYILNNENDDGLDNLLGMDYYNIDDLL”, the “transcriptional activation domain activity” value was 101000. In the case of “GFCMASKTLALVLRHLRRYRWCLVARIRRKATEISTRFCALGGILIIYIRNVS”, the “transcriptional activation domain activity” value is reported as 73500. In the case of “GFFFAIACLFICQGWMLGGDQSIKSISLGGGFLCLFFFSLFSFLFASWCVWLC”, the “transcriptional activation domain activity” value is reported as 38700. “GFHHLLPVFQMLLFKLDHRLYMNIGDVAKFLNITTINVLLLQLTDLHSLINIP” was tested, and the “transcriptional activation domain activity” value was 54900. For “GFLLLLLLLFVFSLVVVHGIVSVSVFYQFFRPYCRFFLFYPYWFIYFLFCLLA”, the “transcriptional activation domain activity” value was 58500. With “GFLLSYSLIRLSLTSHLLFGVFLLIQDIMLVLFSLYPTYPILLFSFLIFIGSF” the “transcriptional activation domain activity” value was 35500. In the case of “GFMLIFWNLAGVPLSYCHCSIFVANHLDTITSWGGDFRLPLLVLLFTSYLFMY”, the “transcriptional activation domain activity” value is reported as 42000. With “GFRFAVAVIDNIQTMKHETMGSYVTLIMNMHITQAVAVWFYSCIFTFKLGQAI” the “transcriptional activation domain activity” value was 62500. In the case of “GFRNFVERLTFCLLEDRVRIAMMQPEQPRYLHSFVSSVMGLNWMVQRWLCLPR”, the “transcriptional activation domain activity” value is reported as 47600. “GFSCHTRILGRPIIISTSTSYIGILLDLVRTFYFLYLLLRILLKVFLAVWCFL” was tested, and the “transcriptional activation domain activity” value was 63700. For “GFSRTAGAKSMPASRRTSASGDDDELAGHLQGLSLAGERSNRVSPAPAPVSAS”, the “transcriptional activation domain activity” value was 44900. With “GFSVDPIVSLLYRAFTMMDVTFLRTVCFDIFSRYSTAELALVNQAFTAKHKKK” the “transcriptional activation domain activity” value was 40700. In the case of “GFTFYFSLHFHIFHIFHYLWEPRATILFFLTSLLFFFFTPIFTFMHCIIFIGF”, the “transcriptional activation domain activity” value is reported as 78900. “GFTTLSMMHATVFHGDLISFKHFLELYRHSPLLILYICGYKNTEYYAARYFYS” was tested, and the “transcriptional activation domain activity” value was 34700. With “GFVDVTEQVCGWPMGPWSDDEKLKELGRWNLRNWEEGMEGWILMLYTRFLGWS” the “transcriptional activation domain activity” value was 69700.
